Test results as given in PMC4692422.

B1: Flag-tagged WT STAT5 (mouse STAT5a) [mouse] / DUSP4-PD (phosphatase-dead mutant DUSP4, [mouse] (parent)
chain 1: MAGWIQAQQLQGDALRQMQVLYGQHFPIEVRHYLAQWIESQPWDAIDLDNPQDRGQATQLLEGLVQELQKKAEHQVGEDGFLLKIKLGHYATQLQNTYDRCPMELVRCIRHILYNEQRLVREANNCSSPAGVLVDAMSQKHLQINQRFEELRLITQDTENELKKLQQTQEYFIIQYQESLRIQAQFAQLGQLNPQERMSRETALQQKQVSLETWLQREAQTLQQYRVELAEKHQKTLQLLRKQQTIILDDELIQWKRRQQLAGNGGPPEGSLDVLQSWCEKLAEIIWQNRQQIRRAEHLCQQLPIPGPVEEMLAEVNATITDIISALVTSTFIIEKQPPQVLKTQTKFAATVRLLVGGKLNVHMNPPQVKATIISEQQAKSLLKNENTRNECSGEILNNCCVMEYHQATGTLSAHFRNMSLKRIKRADRRGAESVTEEKFTVLFESQFSVGSNELVFQVKTLSLPVVVIVHGSQDHNATATVLWDNAFAEPGRVPFAVPDKVLWPQLCEALNMKFKAEVQSNRGLTKENLVFLAQKLFNISSNHLEDYNSMSVSWSQFNRENLPGWNYTFWQWFDGVMEVLKKHHKPHWNDGAILGFVNKQQAHDLLINKPDGTFLLRFSDSEIGGITIAWKFDSPDRNLWNLKPFTTRDFSIRSLADRLGDLNYLIYVFPDRPKDEVFAKYYTPVLAKAVDGYVKPQIKQVVPEFVNASTDAGASATYMDQAPSPVVCPQPHYNMYPPNPDPVLDQDGEFDLDESMDVARHVEELLRRPMDSLDARLSPPAGLFTSARSSLS
chain 2: MVTMEELREMDCSVLKRLMNRDENGGGGSAGGNGSGSHGALGLLSGGKCLLLDCRPFLAHSAGYIRGSVNVRCNTIVRRRAKGSVSLEQILPAEEEVRARLRSGLYSAVIVYDERSPRAESLREDSTVSLVVQALRRNAERTDICLLKGGYERFSSEYPEFCSKTKALAAIPPPVPPSTNESLDLGCSSCGTPLHDQGGPVEILPFLYLGSAYHAARRDMLDALGITALLNVSSDCPNHFEGHYQYKCIPVEDNHKADISSWFMEAIEYIDAVKDCRGRVLVHSQAGISRSATICLAYLMMKKRVRLEEAFEFVKQRRSIISPNFSFMGQLLQFESQVLTTSCAAEAASPSGPLRERGKATPTPTSQFVFSFPVSVGVHAAPSNLPYLHSPITTSPSC

Variants of: B1
Assay: co-IP (anti-Flag IP, IB DUSP4) with band intensity quantification
Settings: HEK-293T cells co-transfected for 24 hr, parent: 3.76e+04
A response (band intensity (arbitrary units)) of 48300 was found for chain 1 Y694D in this work. A response (band intensity (arbitrary units)) of 44800 was found for chain 1 Y694E in this work. A response (band intensity (arbitrary units)) of 43700 was found for chain 1 Y694F in this work.
